Assays:
Assay in all cases: holdup assay
Set-up in all cases: key: below the threshold = too weak to quantify, mostly under pKd 3.1 to 4
APBA2_2, Q99767 = target: T1, APBA2_2, Q99767
T1 sequence (Q99767 654-744, limits assumed, looked up): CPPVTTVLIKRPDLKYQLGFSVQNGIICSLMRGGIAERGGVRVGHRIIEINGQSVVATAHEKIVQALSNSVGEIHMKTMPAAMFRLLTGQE

CARD11, Q9BXL7 = target: T2, CARD11, Q9BXL7
T2 sequence (Q9BXL7 662-765, limits assumed, looked up): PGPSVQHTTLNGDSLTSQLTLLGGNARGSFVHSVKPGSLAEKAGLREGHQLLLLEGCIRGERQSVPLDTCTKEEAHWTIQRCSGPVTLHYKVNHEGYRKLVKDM

CASK, O14936 = target: CASK, O14936
Chain of CASK, O14936 (O14936 487-570): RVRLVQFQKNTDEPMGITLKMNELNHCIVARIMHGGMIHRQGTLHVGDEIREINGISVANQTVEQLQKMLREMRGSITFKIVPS

DFNB31_2, Q9P202 = target: T3, DFNB31_2, Q9P202
T3 sequence (Q9P202 274-371, limits assumed, looked up): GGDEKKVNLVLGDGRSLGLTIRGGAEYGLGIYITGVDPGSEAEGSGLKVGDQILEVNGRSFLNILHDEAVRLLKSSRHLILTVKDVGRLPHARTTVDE

DLG3_2, Q92796 = target: T4, DLG3_2, Q92796
T4 sequence (Q92796 221-321, limits assumed, looked up): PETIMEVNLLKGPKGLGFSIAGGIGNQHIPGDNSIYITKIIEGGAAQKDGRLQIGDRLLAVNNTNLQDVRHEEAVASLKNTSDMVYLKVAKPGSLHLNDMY

DLG3_3, Q92796 = target: T5, DLG3_3, Q92796
T5 sequence (Q92796 374-475, limits assumed, looked up): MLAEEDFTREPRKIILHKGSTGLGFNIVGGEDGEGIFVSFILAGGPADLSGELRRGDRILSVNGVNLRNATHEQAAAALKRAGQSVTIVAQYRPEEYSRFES

DLG4_1, P78352 = target: DLG4_1, P78352
Chain of DLG4_1, P78352 (P78352 62-152): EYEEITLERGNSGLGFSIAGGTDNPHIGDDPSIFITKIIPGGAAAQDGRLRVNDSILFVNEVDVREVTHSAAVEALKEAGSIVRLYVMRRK

FRMPD2_3, Q68DX3 = target: FRMPD2_3, Q68DX3
Chain of FRMPD2_3, Q68DX3 (Q68DX3 1073-1166): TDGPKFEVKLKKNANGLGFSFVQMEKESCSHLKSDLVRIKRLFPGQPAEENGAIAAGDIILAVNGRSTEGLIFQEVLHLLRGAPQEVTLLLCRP

GRIP2_3, Q9C0E4 = target: GRIP2_3, Q9C0E4
Chain of GRIP2_3, Q9C0E4 (Q9C0E4 238-339): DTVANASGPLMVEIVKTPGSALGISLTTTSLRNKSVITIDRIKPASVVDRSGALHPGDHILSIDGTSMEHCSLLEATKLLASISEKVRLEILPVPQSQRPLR

GRIP2_4, Q9C0E4 = target: GRIP2_4, Q9C0E4
Chain of GRIP2_4, Q9C0E4 (Q9C0E4 446-548): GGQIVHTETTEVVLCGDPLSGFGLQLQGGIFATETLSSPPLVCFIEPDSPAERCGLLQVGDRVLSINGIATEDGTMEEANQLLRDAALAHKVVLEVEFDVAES

GRIP2_5, Q9C0E4 = target: GRIP2_5, Q9C0E4
Chain of GRIP2_5, Q9C0E4 (Q9C0E4 544-642): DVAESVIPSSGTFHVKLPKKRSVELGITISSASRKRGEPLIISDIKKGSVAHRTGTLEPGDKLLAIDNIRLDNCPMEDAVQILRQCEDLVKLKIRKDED

GRIP2_6, Q9C0E4 = target: GRIP2_6, Q9C0E4
Chain of GRIP2_6, Q9C0E4 (Q9C0E4 648-740): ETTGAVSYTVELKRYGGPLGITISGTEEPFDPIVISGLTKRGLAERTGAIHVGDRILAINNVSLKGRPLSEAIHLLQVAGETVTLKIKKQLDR

IL16_3, Q14005 = target: IL16_3, Q14005
Chain of IL16_3, Q14005 (Q14005 1107-1207): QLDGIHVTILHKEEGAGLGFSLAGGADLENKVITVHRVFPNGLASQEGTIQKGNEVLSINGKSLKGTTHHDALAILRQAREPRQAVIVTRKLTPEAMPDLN

Inadl_1, Q8NI35 = target: Inadl_1, Q8NI35
Chain of Inadl_1, Q8NI35 (Q8NI35 113-229): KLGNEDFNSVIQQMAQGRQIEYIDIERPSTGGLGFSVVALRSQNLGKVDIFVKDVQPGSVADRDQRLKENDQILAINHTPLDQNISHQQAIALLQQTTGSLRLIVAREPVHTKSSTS

Inadl_8, Q8NI35 = target: Inadl_8, Q8NI35
Chain of Inadl_8, Q8NI35 (Q8NI35 1425-1530): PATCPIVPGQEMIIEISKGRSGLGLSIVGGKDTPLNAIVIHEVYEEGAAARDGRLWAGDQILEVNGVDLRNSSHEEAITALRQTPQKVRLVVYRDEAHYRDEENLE

LDB3, O75112 = target: LDB3, O75112
Chain of LDB3, O75112 (O75112 1-94): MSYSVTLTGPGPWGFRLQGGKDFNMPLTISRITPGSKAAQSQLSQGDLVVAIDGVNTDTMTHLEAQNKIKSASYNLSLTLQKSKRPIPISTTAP

LIMK2, P53671 = target: LIMK2, P53671
Chain of LIMK2, P53671 (P53671 143-248): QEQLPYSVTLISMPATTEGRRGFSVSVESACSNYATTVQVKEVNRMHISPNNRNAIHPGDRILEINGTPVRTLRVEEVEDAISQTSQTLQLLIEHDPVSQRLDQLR

LNX2_2, Q8N448 = target: T6, LNX2_2, Q8N448
T6 sequence (Q8N448 334-432, limits assumed, looked up): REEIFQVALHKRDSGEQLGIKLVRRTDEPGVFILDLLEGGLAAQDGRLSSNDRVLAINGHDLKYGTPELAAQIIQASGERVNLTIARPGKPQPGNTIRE

MAGI2_4, Q86UL8 = target: MAGI2_4, Q86UL8
Chain of MAGI2_4, Q86UL8 (Q86UL8 772-865): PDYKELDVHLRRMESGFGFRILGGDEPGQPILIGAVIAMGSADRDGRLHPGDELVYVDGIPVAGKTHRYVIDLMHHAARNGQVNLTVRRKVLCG

MAGI2_6, Q86UL8 = target: MAGI2_6, Q86UL8
Chain of MAGI2_6, Q86UL8 (Q86UL8 1141-1229): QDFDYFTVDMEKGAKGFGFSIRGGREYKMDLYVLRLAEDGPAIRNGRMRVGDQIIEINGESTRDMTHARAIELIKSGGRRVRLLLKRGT

MAGI3_2, Q5TCQ9 = target: MAGI3_2, Q5TCQ9
Chain of MAGI3_2, Q5TCQ9 (Q5TCQ9 398-503): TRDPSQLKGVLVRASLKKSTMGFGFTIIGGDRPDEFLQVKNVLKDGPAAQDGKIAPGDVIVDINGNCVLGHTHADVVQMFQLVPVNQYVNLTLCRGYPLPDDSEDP

MPDZ_12, O75970 = target: T7, MPDZ_12, O75970
T7 sequence (O75970 1857-1958, limits assumed, looked up): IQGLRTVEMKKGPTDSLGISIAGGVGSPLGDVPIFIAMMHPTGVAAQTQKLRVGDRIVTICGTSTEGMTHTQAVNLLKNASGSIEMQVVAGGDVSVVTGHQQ

MPP2, Q14168 = target: T8, MPP2, Q14168
T8 sequence (Q14168 180-250, limits assumed, looked up): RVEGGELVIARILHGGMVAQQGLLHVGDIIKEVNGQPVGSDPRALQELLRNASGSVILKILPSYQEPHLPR

PDZD7_3, Q9H5P4 = target: T9, PDZD7_3, Q9H5P4
T9 sequence (Q9H5P4 857-944, limits assumed, looked up): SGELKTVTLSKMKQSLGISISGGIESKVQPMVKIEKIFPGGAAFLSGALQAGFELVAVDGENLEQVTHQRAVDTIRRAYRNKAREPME

PTPN3, P26045 = target: PTPN3, P26045
Chain of PTPN3, P26045 (P26045 505-587): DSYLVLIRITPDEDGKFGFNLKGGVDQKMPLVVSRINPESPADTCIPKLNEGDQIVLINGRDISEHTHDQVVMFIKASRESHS

SHANK1, Q9Y566 = target: T10, SHANK1, Q9Y566
T10 sequence (Q9Y566 658-767, limits assumed, looked up): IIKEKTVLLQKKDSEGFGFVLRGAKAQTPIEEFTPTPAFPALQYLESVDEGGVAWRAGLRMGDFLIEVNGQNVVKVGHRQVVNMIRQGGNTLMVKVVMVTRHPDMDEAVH

TJP1_3, Q07157 = target: TJP1_3, Q07157
Chain of TJP1_3, Q07157 (Q07157 416-512): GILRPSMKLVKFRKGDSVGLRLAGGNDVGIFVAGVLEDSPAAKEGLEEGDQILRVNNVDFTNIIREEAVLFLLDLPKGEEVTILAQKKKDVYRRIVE

TJP3_3, O95049 = target: T11, TJP3_3, O95049
T11 sequence (O95049 375-456, limits assumed, looked up): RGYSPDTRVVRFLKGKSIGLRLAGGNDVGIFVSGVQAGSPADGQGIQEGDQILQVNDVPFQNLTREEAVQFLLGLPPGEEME

[1] = plain residues with an end cap or a label only (N-terminal biotin on a linker: ado-ado)
[2] = modified: phospho on T at position -2 from the C-terminal residue

Binder: QPCFNKLFPL [LPXN, O60711]
- pKd (APBA2_2, Q99767; [1]): below the threshold
- pKd (CARD11, Q9BXL7; [1]): below the threshold
- pKd (CASK, O14936; [1]): below the threshold
- pKd (DFNB31_2, Q9P202; [1]): below the threshold
- pKd (DLG3_2, Q92796; [1]): below the threshold
- pKd (DLG3_3, Q92796; [1]): below the threshold
- pKd (DLG4_1, P78352; [1]): below the threshold
- pKd (FRMPD2_3, Q68DX3; [1]): below the threshold
- pKd (GRIP2_3, Q9C0E4; [1]): below the threshold
- pKd (GRIP2_4, Q9C0E4; [1]): below the threshold
- pKd (GRIP2_5, Q9C0E4; [1]): below the threshold
- pKd (GRIP2_6, Q9C0E4; [1]): below the threshold
- pKd (IL16_3, Q14005; [1]): below the threshold
- pKd (Inadl_1, Q8NI35; [1]): below the threshold
- pKd (Inadl_8, Q8NI35; [1]): below the threshold
- pKd (LDB3, O75112; [1]): below the threshold
- pKd (LIMK2, P53671; [1]): below the threshold
- pKd (LNX2_2, Q8N448; [1]): below the threshold
- pKd (MAGI2_4, Q86UL8; [1]): below the threshold
- pKd (MAGI2_6, Q86UL8; [1]): below the threshold
- pKd (MAGI3_2, Q5TCQ9; [1]): below the threshold
- pKd (MPDZ_12, O75970; [1]): below the threshold
- pKd (MPP2, Q14168; [1]): below the threshold
- pKd (PDZD7_3, Q9H5P4; [1]): below the threshold
- pKd (PTPN3, P26045; [1]): below the threshold
- pKd (SHANK1, Q9Y566; [1]): below the threshold
- pKd (TJP1_3, Q07157; [1]): below the threshold
- pKd (TJP3_3, O95049; [1]): below the threshold

Binder: SSALYGESDL [ACTN2, P35609]
- pKd (APBA2_2, Q99767; [1]): 3.47
- pKd (CARD11, Q9BXL7; [1]): below the threshold
- pKd (CASK, O14936; [1]): below the threshold
- pKd (DFNB31_2, Q9P202; [1]): below the threshold
- pKd (DLG3_2, Q92796; [1]): 4.18
- pKd (DLG3_3, Q92796; [1]): 3.6
- pKd (DLG4_1, P78352; [1]): below the threshold
- pKd (FRMPD2_3, Q68DX3; [1]): below the threshold
- pKd (GRIP2_3, Q9C0E4; [1]): below the threshold
- pKd (GRIP2_4, Q9C0E4; [1]): below the threshold
- pKd (GRIP2_5, Q9C0E4; [1]): below the threshold
- pKd (GRIP2_6, Q9C0E4; [1]): below the threshold
- pKd (IL16_3, Q14005; [1]): below the threshold
- pKd (Inadl_1, Q8NI35; [1]): below the threshold
- pKd (Inadl_8, Q8NI35; [1]): below the threshold
- pKd (LDB3, O75112; [1]): 4.4
- pKd (LIMK2, P53671; [1]): below the threshold
- pKd (LNX2_2, Q8N448; [1]): below the threshold
- pKd (MAGI2_4, Q86UL8; [1]): below the threshold
- pKd (MAGI2_6, Q86UL8; [1]): 5.05
- pKd (MAGI3_2, Q5TCQ9; [1]): below the threshold
- pKd (MPDZ_12, O75970; [1]): below the threshold
- pKd (MPP2, Q14168; [1]): below the threshold
- pKd (PDZD7_3, Q9H5P4; [1]): below the threshold
- pKd (PTPN3, P26045; [1]): 4.45
- pKd (SHANK1, Q9Y566; [1]): 3.91
- pKd (TJP1_3, Q07157; [1]): below the threshold
- pKd (TJP3_3, O95049; [1]): below the threshold

Binder: RLQRRRETQV [HPV18-E6_-2P, P06463]
- pKd (APBA2_2, Q99767; [2]): below the threshold
- pKd (CARD11, Q9BXL7; [2]): below the threshold
- pKd (CASK, O14936; [2]): below the threshold
- pKd (DFNB31_2, Q9P202; [2]): below the threshold
- pKd (DLG3_2, Q92796; [2]): below the threshold
- pKd (DLG3_3, Q92796; [2]): 3.52
- pKd (DLG4_1, P78352; [2]): below the threshold
- pKd (FRMPD2_3, Q68DX3; [2]): below the threshold
- pKd (GRIP2_3, Q9C0E4; [2]): below the threshold
- pKd (GRIP2_4, Q9C0E4; [2]): below the threshold
- pKd (GRIP2_5, Q9C0E4; [2]): below the threshold
- pKd (GRIP2_6, Q9C0E4; [2]): below the threshold
- pKd (IL16_3, Q14005; [2]): below the threshold
- pKd (Inadl_1, Q8NI35; [2]): below the threshold
- pKd (Inadl_8, Q8NI35; [2]): below the threshold
- pKd (LDB3, O75112; [2]): below the threshold
- pKd (LIMK2, P53671; [2]): below the threshold
- pKd (LNX2_2, Q8N448; [2]): below the threshold
- pKd (MAGI2_4, Q86UL8; [2]): below the threshold
- pKd (MAGI2_6, Q86UL8; [2]): below the threshold
- pKd (MAGI3_2, Q5TCQ9; [2]): below the threshold
- pKd (MPDZ_12, O75970; [2]): below the threshold
- pKd (MPP2, Q14168; [2]): below the threshold
- pKd (PDZD7_3, Q9H5P4; [2]): below the threshold
- pKd (PTPN3, P26045; [2]): below the threshold
- pKd (SHANK1, Q9Y566; [2]): below the threshold
- pKd (TJP1_3, Q07157; [2]): below the threshold
- pKd (TJP3_3, O95049; [2]): below the threshold
